The values that follow come from patent US20240124575A1 (SIMCERE ZAIMING PHARMACEUTICAL, published 2024).

A word on the EC50 (read off the curve): it is the concentration needed to bring the measured effect to its halfway point.

The target of assay [1] is T1, monkey CD33-His protein (monkey).
T1 construct: also called monkey CD33 protein
Put plainly: ELISA on coated monkey CD33-his.

For assay [2], the target named is T2, human CD33-His (extracellular domain Asp 18-His 259) (human, UniProt P20138 18-259).
T2 construct: range 18-259; bought protein; also called hCD33-his; human CD33 protein; not shown: His tag
T2 sequence (P20138 18-259 limits assumed): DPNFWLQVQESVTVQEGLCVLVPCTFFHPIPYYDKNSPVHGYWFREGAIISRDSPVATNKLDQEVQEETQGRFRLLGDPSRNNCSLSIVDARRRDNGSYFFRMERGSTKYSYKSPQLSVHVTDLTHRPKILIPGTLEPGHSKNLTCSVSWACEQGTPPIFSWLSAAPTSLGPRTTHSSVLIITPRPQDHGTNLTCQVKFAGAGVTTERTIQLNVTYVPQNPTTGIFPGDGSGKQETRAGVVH
Put plainly: competitive ELISA vs coated S006-NB147-225 2ug/mL; soluble 25ug/ml. As to the method:
(§1) VHH antibodies and control antibodies with known epitopes were subjected to epitope classification with competitive ELISA. ELISA plates were coated with 2 μg/mL antibodies according to the method in Example 5.1; the human CD33-his protein was subjected to a gradient dilution from 30 μg/mL, and EC80 values (Tables 26-27) were calculated. ELISA plates were coated with 2 μg/mL antibodies; after 25 µg/mL of antibodies to be tested were added, a human CD33-his protein having an EC80 concentration corresponding to each of the antibodies to be tested was then added for incubation for 2 h. The plates were washed 5 times with PBS, then HRP-labeled anti-His antibodies (purchased from GenScript, Cat. No. A00612) were added for incubation for 1 h, and the plates were washed 5 times. A TMB substrate was added at 50 μL/well and incubated at room temperature for 10 min, then a stop solution (1.0 M HCl) was added at 50 μL/well. OD_{450 nm} values were read using an ELISA plate reader (Insight, purchased from PerkinElmer), and the competition rate between the antibodies was calculated according to the OD_{450 nm} values using a formula. The results are shown in FIGS. 12A-12B, the higher the value of the competition rate, the closer the epitopes to which two antibodies bind.

The target in assay [3] is T1, monkey CD33-His protein. In words: ELISA on coated monkey CD33-his. The source holds these as a separate data set. (In general: An ELISA detects its analyte on a solid surface through an enzyme-linked reagent.)
Assay [4] has as its target T2, human CD33-His (extracellular domain …). In words: competitive ELISA vs coated C33B904 2ug/mL; soluble 25ug/ml. As to the method: as §1
Assay [5] has the same target. Put plainly: competitive ELISA vs coated S006-NB146-150 3ug/mL; soluble 25ug/ml.
Assay [6] deals with T3, human CD33-C2-his (human, UniProt P20138 136-260).
T3 construct: expressed in HEK293E; also called hCD33-C2-his; human CD33 protein C2-domain; not shown: His tag
T3 sequence (P20138 other isoform, or with tags, fused parts or gaps limits assumed): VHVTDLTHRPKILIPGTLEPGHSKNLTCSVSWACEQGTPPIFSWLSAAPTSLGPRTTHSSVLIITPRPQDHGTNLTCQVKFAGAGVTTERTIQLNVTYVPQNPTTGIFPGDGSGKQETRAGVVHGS
Put plainly: ELISA on coated human CD33-C2-his. The source says:
Plates were coated with human CD33-V-his (membrane distal end) and human CD33-C2-his (membrane proximal end), respectively, according to the ELISA method in Example 8. The VHH humanized antibodies were classified based on the membrane distal end and the membrane proximal end, as shown in FIGS. 20A-20J and Table 44, which allowed the classification of the VHH humanized antibodies into the following classes: […]

In assay [7] the target is T3, human CD33-C2-his. Put plainly: ELISA on coated human CD33-C2-his. This is another data set of the same source.
Assay [8] addresses T2, human CD33-His (extracellular domain …). Put plainly: competitive ELISA vs coated S006-NB146-17 2ug/mL; soluble 25ug/ml. As to the method: as §1
Assay [9] has as its target T4, human CD33-his protein (human, UniProt P20138 18-259).
T4 construct: range 18-259; bought protein; also called hCD33-his; recombinant human CD33-his; not shown: His tag
In words: competition ELISA, coated human CD33-his, vs Biotin-C33B904 at EC80; antibody 125.00 nM. The method, then:
(§2) The plate was sealed with a plastic film and incubated at 4° C. overnight, washed twice with PBS the next day, and a blocking solution [PBS+2% (w/w) BSA] was added for blocking at room temperature for 2 h. The blocking solution was discarded, and VHH-Fc antibody or negative control antibody serially diluted from 100 nM was added at 50 μL/well. After incubation at 37° C. for 2 h, the plate was washed 3 times with PBS. A secondary antibody labeled with HRP (horseradish peroxidase) (purchased from Sigma, Cat. No. A0170) was added. After incubation for 1 h at 37° C., the plate was washed 5 times with PBS. A TMB substrate was added at 50 μL/well. After incubation at room temperature for 10 min, a stop solution (1.0 N HCl) was added at 50 μL/well. The OD450 nm values were read on an ELISA plate reader (Multimode Plate Reader, EnSight, purchased from Perkin Elmer). The assay results for the binding of the VHH-Fc to hCD33-his by ELISA are shown in FIGS. 7A and 7B and Tables 11 and 12. […] The IgG control was hIgG1, and the data in the table are OD450 nm values.
(§3) ELISA plates were coated with 2 μg/mL human CD33-his protein according to the method in Example 5.1; the Biotin-C331B904 antibody was subjected to a gradient dilution from 15 μg/mL, and EC80 values (0.18 μg/mL) were calculated. […] OD_{450 nm} values were read using an ELISA plate reader (Insight, purchased from PerkinElmer). […]

Assay [10] deals with T4, human CD33-his protein. In words: competition ELISA, coated human CD33-his, vs Biotin-C33B904 at EC80; antibody 1.95 nM. As to the method:
as §2, §3

Assay [11] has as its target T4, human CD33-his protein. Put plainly: competition ELISA, coated human CD33-his, vs Biotin-C33B904 at EC80; antibody 31.25 nM. The method, then:
(§4) ELISA plates were coated with 2 μg/mL human CD33-his protein according to the method in Example 5.1; the Biotin-C331B904 antibody was subjected to a gradient dilution from 15 μg/mL, and EC80 values (0.18 μg/mL) were calculated. ELISA plates were coated with 2 μg/mL human CD33-his protein; starting from 40 μg/mL, the VHH antibodies to be tested were diluted in a 1:2 dilution ratio to obtain seven concentrations and added to the ELISA plates, and then Biotin-C331904 antibodies with the EC80 concentrations were added for incubation for 2 h. The plates were washed 5 times with PBS and then […] (purchased from Sigma, Cat. No. S2438) were added for incubation for 1 h, and the plates were washed 5 times. A TMB substrate was added at 50 μL/well and incubated at room temperature for 10 min, then a stop solution (1.0 M HCl) was added at 50 μL/well. OD_{450 nm} values were read using an ELISA plate reader (Insight, purchased from PerkinElmer). Then, analysis was performed by software (GraphPad Prism8), and data were fitted for curve plotting. The results are shown in FIGS. 13A-13B and Tables 28 and 29.

The target in assay [12] is T4, human CD33-his protein. In words: competition ELISA, coated human CD33-his, vs Biotin-C33B904 at EC80; antibody 250.00 nM. As to the method: as §4

Where two headings read alike, the source gives them in different places.

T4 sequence (P20138 18-259 limits assumed): as the sequence (P20138 18-259 limits assumed) above

B1: C33B904 hIgG1 (antibody, V domains shown)
VH: EVQLVESGGGLVQPGRSLRLSCAASGFTFDDYAMHWVRQAPGKGLEWVSGIGWSGGSIVYADSVKGRFTISRDNAKNSLYLQMNSLRAEDTALYYCAKDSPYGDFFDYWGQGTLVTVSS
VL: DIVMTQSPDSLAVSLGERATINCKSSQTVFYSSNNKNYLAWYQQKPGQPPKLLISWASTRKSGVPDRFSGSGSGTDFTLTVSSLQAEDVAVYYCQHYYSTPYTFGQGTKLEIKR
notes: intact human IgG1; variable regions from US20190382481A1; also called C33B3904; C331B904
On to B1, for which the “EC50 (read off the curve)” value in assay [1] is roughly 0.2 nM; in assay [3] it was roughly 0.2 nM; in assay [6], roughly 0.1 nM; in [7], roughly 0.4 nM. In addition, the inhibition rate stood at 96% in assay [2], 88% in [4], 100% in assay [5] and 1% in assay [8].

B2: C33B904 (antibody, human IgG1, kappa, V domains shown)
VH: B1 VH
VL: B1 VL
notes: control antibody, intact human IgG1 form; variable regions from US20190382481A1; also called C33B904 hIgG1; C331B904
Consider B2, for which the “OD450 (Biotin-C33B904 signal)” value came to 0.16 in [9], 2.43 in assay [10], 0.66 in assay [11] and 0.1 in [12].
